Measured values as given in patent US8273705B2, “Conversion of apoptotic proteins” (The Burnham Institute, priority 2002, dated 2012).

Assays:
[1] = tested on: Bcl-2 mutants Y108K, L137A, G145A, R146Q; test: Co-IP assay with Bcl-2 hydrophobic groove mutants in HEK293T cells; type: binding
Experimental: TR3/Bcl-2 interaction assays—Reporter gene assays using NurRE-tk-CAT in CV-1 cells, and GST pull-down assay were described previously (Li, et al. 2000 Science 289, 1159-1164). For the mammalian two-hybrid assays, CV-1 cells were co-transfected with pcDNA-Gal4TAD-TR3 or pcDNA-Gal4TAD-TR3/ΔDBD and pcDNA-Gal4DBD-Bcl-2/ΔTM along with a luciferase reporter gene driven by four copies of the Gal4-binding site. The cells were harvested and reporter gene activity was measured. […] Immunoreactive products were detected by chemiluminescence with an enhanced chemiluminescence system (ECL) (Amersham).
Binding of BH3 domain to Bcl-2 is mediated by a hydrophobic cleft formed by the BH1, BH2, and BH3 region of Bcl-2 (Sattler et al. 1997 Science 275:983-986). To determine whether TR3/ΔDBD bound to the Bcl-2 hydrophobic groove, several Bcl-2 mutants with mutations of amino acids, Tyr108, Leu137, or Arg146, critical for the formation of the hydrophobic cleft, were analyzed for their interaction with TR3/ΔDBD. […] The Bcl-2 mutants, Y108KBcl-2, L137ABcl-2 and R146QBcl-2, were analyzed for their interaction with GFP-TR3/ΔDBD in 293T cells by Co-IP assay as described in Example 2. […]

[2] = tested on: NCI-H460 lung cancer cells; test: GFP-TR3/ΔDBD mitochondrial targeting in NCI-H460 lung cancer cells; type: cell-based; conditions: transient transfection
Experimental: Subcellular localization assays—Cells were seeded onto cover-slips in 6-well plates overnight, then transiently transfected with GFP-fusion expression plasmids. After 16 hours, cells were washed with PBS and fixed in 4% paraformaldehyde. For mitochondrial staining, cells were then incubated with anti-Hsp60 goat IgG (Santa Cruz, USA), followed by anti-goat IgG conjugated with Cy3 (Sigma). For cyt c staining, cells were incubated with monoclonal anti-cyt c IgG (PharMingen), followed by anti-mouse IgG conjugated with Cy5 (Amersham). Fluorescent images were collected and analyzed using a MRC-1024 MP laser-scanning confocal microscope (Bio-Rad). Subcellular fractionation assays were performed as described (Li, et al. 2000 Science 289:1159-1164). Briefly, cells (1×10^7 cells) suspended in 0.5 ml hypotonic buffer (5 mM Tris-HCl, pH 7.4, 5 mM KCl, 1.5 mM MgCl2, 0.1 mM EGTA, pH 8.0, and 1 mM DTT) were homogenized and cell extracts were centrifuged at 500×g for 5 min. The resulting supernatant was centrifuged at 10,000×g for 30 min at 4° C. to obtain the HM fraction. […]
Given the results of these studies, it was desirable to determine whether TR3 exerts its apoptotic effect in lung cancer cells as in prostate cancer cells by targeting to mitochondria. […] The cells were stained for mitochondria (Hsp60) and cytochrome c (Cyt c), and analyzed by confocal microscopy. […]

[3] = tested on: MCF-7 breast cancer cells; test: DAPI apoptosis assay in MCF-7 cells; type: cell-based
Experimental: Apoptosis assays—For nuclear morphological change analysis, cells were trypsinized, washed with PBS, fixed with 3.7% paraformaldehyde, and stained with DAPI (4,6-diamidino-2-phenylindole) (50 μg/ml) to visualize the nuclei by UV-microscopy. The percentages of apoptotic cells were determined by counting 300 GFP-positive cells, scoring cells having nuclear fragmentation and/or chromatin condensation.
DAPI staining was used to study the apoptotic effect of TR3/Bcl-2 interaction. 293T cells were transfected with GFP-TR3/ΔDBD alone or together with Bcl-2. After 36 h, nuclei were stained by DAPI and nuclear fragmentation and chromatin condensation were identified. Cells were also stained with anti-Bcl-2 antibody, followed by TRITC-conjugated secondary antibody (Sigma). Bcl-2 and GFP-ΔDBD expression and nuclear morphology were visualized by fluorescence microscopy, and the two images were overlaid. […] But, when Bcl-2 was cotransfected, a significant amount of transfected cells underwent apoptosis. For example, approximately 4% of cells transfected with either TR3/ΔDBD or Bcl-2 were apoptotic, compared to 35% of cell transfected with both. […] Cotransfection of Bcl-2, however, prevented BAX-induced apoptosis in these cells (see FIG. 4). The effect of Bcl-2 on apoptotic potential of TR3/ΔDBD in lung cancer and breast cancer cells was also investigated.

Chain of Bcl-2 mutants Y108K, L137A, G145A, R146Q (P10415 1-80 limits assumed, stated change not applied): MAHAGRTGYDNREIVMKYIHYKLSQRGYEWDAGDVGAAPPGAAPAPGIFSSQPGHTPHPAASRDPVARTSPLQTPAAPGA

B1: TR3/ΔDBD: TR3 mutant with the DNA binding domain removed; used as GFP fusion (protein)
chain: MPCIQAQYGTPAPSPGPRDHLASDPLTPEFIKPTMDLASPEAAPAAPTALPSFSTFMDGYTGEFDTFLYQLPGTVQPCSSASSSASSTSSSSATSPASASFKFEDFQVYGCYPGPLSGPVDEALSSSGSDYYGSPCSAPSPSTPSFQPPQLSPWDGSFGHFSPSQTYLVLHRLQCARGFGDWIDSILAFSRSLHSLLVDVPAFACLSALVLITDRHGLQEPRRVEELQNRIASCLKEHVAAVAGEPQPASCLSRLLGKLPELRTLCTQGLQRIFYLKLEDLVPPPPIIDKIFMDTLPF
modifications: left off: large carriers; small tags and cut ends
notes: used as GFP fusion
binding of Bcl-2 hydrophobic groove mutants to TR3/ΔDBD (Co-IP) [1]: still capable of binding | GFP-TR3/ΔDBD subcellular localization [2]: targeted to mitochondria | apoptosis ([3]; MCF-7, absence of Bcl-2): did not show any apoptotic effect | apoptosis ([3]; MCF-7, co-expression of Bcl-2): strong induction of apoptosis
